According to patent publication US12060424 (AMUNIX PHARMACEUTICALS, dated 2024):
Residue numbers refer to the chain shown, from its start. Blank lines part the entries; values can stand above or below the binder they belong to.

What was measured:
[1] = biological target: T1, human EpCAM expressed on cells (CHO cells stably transfected with human EpCAM); EpCAM-positive human tumor … (human, UniProt P16422 24-314); experiment: cell-based or functional assay
T1 sequence (looked up): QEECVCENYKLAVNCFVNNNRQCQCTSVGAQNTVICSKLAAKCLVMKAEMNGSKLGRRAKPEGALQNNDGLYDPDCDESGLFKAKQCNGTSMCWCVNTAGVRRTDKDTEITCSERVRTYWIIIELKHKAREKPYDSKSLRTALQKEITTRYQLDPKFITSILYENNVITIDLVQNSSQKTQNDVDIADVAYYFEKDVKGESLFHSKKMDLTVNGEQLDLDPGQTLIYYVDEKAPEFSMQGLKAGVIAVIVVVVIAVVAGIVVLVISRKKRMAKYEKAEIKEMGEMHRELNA

[2] = biological target: recombinant human CD3 epsilon & delta (rhCD3ε & δ), Creative BioMart cat #CD3E&CD3D-219H (human) (UniProt P07766); experiment: sandwich ELISA: rhCD3ε & δ coated, biotinylated anti-XTEN antibody detection
[3] = biological target: recombinant human CD3 epsilon & delta (rhCD3ε & δ), Creative BioMart cat #CD3E&CD3D-219H (human) (UniProt P07766); experiment: SPR (Biacore 3000), His-tagged CD3εδ coupled to chip, ProTIA as analyte at 5-6 concentrations
[4] = biological target: T2, Fc-tagged EpCAM (R&D Systems, cat #960-EP-050), human, coupled to SPR chip (human, UniProt P16422 24-265); experiment: SPR (Biacore 3000), Fc-tagged EpCAM coupled to chip, ProTIA as analyte at 5-6 concentrations
T2 construct: Bought reagent; also called human EpCAM; EpCAM chip; not shown: Fc tag of the bought reagent
T2 sequence (looked up): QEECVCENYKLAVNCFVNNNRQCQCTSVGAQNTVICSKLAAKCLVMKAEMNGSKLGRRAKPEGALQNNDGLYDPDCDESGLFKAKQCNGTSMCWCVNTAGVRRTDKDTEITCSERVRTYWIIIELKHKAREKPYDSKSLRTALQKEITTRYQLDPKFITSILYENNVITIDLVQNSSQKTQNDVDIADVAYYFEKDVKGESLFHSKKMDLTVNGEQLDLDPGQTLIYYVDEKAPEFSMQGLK

[5] = biological target: T3, recombinant human EpCAM (rhEpCAM), coated on ELISA plate (human, UniProt P16422 24-265); experiment: sandwich ELISA: rhEpCAM coated, peroxidase-conjugated protein L detection
T3 construct: Bought reagent
T3 sequence (looked up): T2 sequence (looked up)

[6] = biological target: human CD3 on cells (CD3+ Jurkat cells; purified human CD3 positive T cells) (human, UniProt P07766 23-207); experiment: cell-based or functional assay
[7] = biological target: recombinant human CD3 epsilon & delta (rhCD3ε & δ), Creative BioMart cat #CD3E&CD3D-219H (human) (UniProt P07766); experiment: sandwich ELISA: rhCD3ε & δ coated, peroxidase-conjugated protein L detection

Sequence of recombinant human CD3 epsilon & delta (rhCD3ε & δ), Creative BioMart cat #CD3E&CD3D-219H (human) (P07766 23-126, stated change not applied, chain 1 of 2): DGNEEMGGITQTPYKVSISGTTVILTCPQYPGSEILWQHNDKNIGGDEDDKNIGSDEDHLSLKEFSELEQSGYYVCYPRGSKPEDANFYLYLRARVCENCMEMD
Sequence of recombinant human CD3 epsilon & delta (rhCD3ε & δ), Creative BioMart cat #CD3E&CD3D-219H (human) (P04234 22-105, stated change not applied, chain 2 of 2, further chain): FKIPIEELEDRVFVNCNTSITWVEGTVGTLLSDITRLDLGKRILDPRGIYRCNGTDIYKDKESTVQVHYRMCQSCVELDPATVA
Sequence of human CD3 on cells (CD3+ Jurkat cells; purified human CD3 positive T cells) (P07766 23-207): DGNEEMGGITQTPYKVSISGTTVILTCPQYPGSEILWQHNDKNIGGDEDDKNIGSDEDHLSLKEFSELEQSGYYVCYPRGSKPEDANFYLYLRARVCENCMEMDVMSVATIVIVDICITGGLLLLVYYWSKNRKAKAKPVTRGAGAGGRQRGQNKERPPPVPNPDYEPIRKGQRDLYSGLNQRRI

B1: AC1693 protease-untreated anti-EpCAM×anti-CD3 ProTIA (bispecific antibody)
chain: DIQMTQSPSSLSASVGDRVTITCRSTKSLLHSNGITYLYWYQQKPGKAPKLLIYQMSNLASGVPSRFSSSGSGTDFTLTISSLQPEDFATYYCAQNLEIPRTFGQGTKVEIKGATPPETGAETESPGETTGGSAESEPPGEGQVQLVQSGPGLVQPGGSVRISCAASGYTFTNYGMNWVKQAPGKGLEWMGWINTYTGESTYADSFKGRFTFSLDTSASAAYLQINSLRAEDTAVYYCARFAIKGDYWGQGTLLTVSSGGGGSDIQMTQSPSSLSASVGDRVTITCRASQDIRNYLNWYQQKPGKAPKLLIYYTSRLESGVPSRFSGSGSGTDYTLTISSLQPEDFATYYCQQGNTLPWTFGQGTKVEIKGATPPETGAETESPGETTGGSAESEPPGEGEVQLVESGGGLVQPGGSLRLSCAASGYSFTGYTMNWVRQAPGKGLEWVALINPYKGVSTYNQKFKDRFTISVDKSKNTAYLQMNSLRAEDTAVYYCARSGYYGDSDWYFDVWGQGTLVTVSSGTAEAASASGESGRAANHTGAPPGGLTGPPGSPAGSPTSTEEGTSESATPESGPGTSTEPSEGSAPGSPAGSPTSTEEGTSTEPSEGSAPGTSTEPSEGSAPGTSESATPESGPGSEPATSGSETPGSEPATSGSETPGSPAGSPTSTEEGTSESATPESGPGTSTEPSEGSAPGTSTEPSEGSAPGSPAGSPTSTEEGTSTEPSEGSAPGTSTEPSEGSAPGTSESATPESGPGTSTEPSEGSAPGTSESATPESGPGSEPATSGSETPGTSTEPSEGSAPGTSTEPSEGSAPGTSESATPESGPGTSESATPESGPGSPAGSPTSTEEGTSESATPESGPGSEPATSGSETPGTSESATPESGPGTSTEPSEGSAPGTSTEPSEGSAPGTSTEPSEGSAPGTSTEPSEGSAPGTSTEPSEGSAPGTSTEPSEGSAPGSPAGSPTSTEEGTSTEPSEGSAPGTSESATPESGPGSEPATSGSETPGTSESATPESGPGSEPATSGSETPGTSESATPESGPGTSTEPSEGSAPGTSESATPESGPGSPAGSPTSTEEGSPAGSPTSTEEGSPAGSPTSTEEGTSESATPESGPGTSTEPSEGSAPGTSESATPESGPGSEPATSGSETPGTSESATPESGPGSEPATSGSETPGTSESATPESGPGTSTEPSEGSAPGSPAGSPTSTEEGTSESATPESGPGSEPATSGSETPGTSESATPESGPGSPAGSPTSTEEGSPAGSPTSTEEGTSTEPSEGSAPGTSESATPESGPGTSESATPESGPGTSESATPESGPGSEPATSGSETPGSEPATSGSETPGSPAGSPTSTEEGTSTEPSEGSAPGTSTEPSEGSAPGSEPATSGSETPGTSESATPESGPGTSTEPSEGSAPGHHHHHH
EC50 (pM), caspase 3/7 cytotoxicity, PBMC with HCT-116 cells 10:1 [1]: 21 pM
EC50 (pM), caspase 3/7 cytotoxicity, PBMC with HPAF-II cells 10:1 [1]: 12 pM
EC50 (pM), caspase 3/7 cytotoxicity, PBMC with MDA-MB-231 cells 10:1 [1]: 3480 pM
EC50 [2]: 0.009 µg/mL
fold more active binding than the non-cleavable AC1484 [2]: 3 fold

B4: AC1476 aEpCAM-aCD3-BSRS1-XTEN_AE864-His(6), protease-untreated (uncleaved) anti-EpCAM×anti-CD3 ProTIA (bispecific antibody)
chain: DIQMTQSPSSLSASVGDRVTITCRSTKSLLHSNGITYLYWYQQKPGKAPKLLIYQMSNLASGVPSRFSSSGSGTDFTLTISSLQPEDFATYYCAQNLEIPRTFGQGTKVEIKGATPPETGAETESPGETTGGSAESEPPGEGQVQLVQSGPGLVQPGGSVRISCAASGYTFTNYGMNWVKQAPGKGLEWMGWINTYTGESTYADSFKGRFTFSLDTSASAAYLQINSLRAEDTAVYYCARFAIKGDYWGQGTLLTVSSGGGGSDIQMTQSPSSLSASVGDRVTITCRASQDIRNYLNWYQQKPGKAPKLLIYYTSRLESGVPSRFSGSGSGTDYTLTISSLQPEDFATYYCQQGNTLPWTFGQGTKVEIKGATPPETGAETESPGETTGGSAESEPPGEGEVQLVESGGGLVQPGGSLRLSCAASGYSFTGYTMNWVRQAPGKGLEWVALINPYKGVSTYNQKFKDRFTISVDKSKNTAYLQMNSLRAEDTAVYYCARSGYYGDSDWYFDVWGQGTLVTVSSGTAEAASASGLSGRSDNHSPLGLAGSPGSPAGSPTSTEEGTSESATPESGPGTSTEPSEGSAPGSPAGSPTSTEEGTSTEPSEGSAPGTSTEPSEGSAPGTSESATPESGPGSEPATSGSETPGSEPATSGSETPGSPAGSPTSTEEGTSESATPESGPGTSTEPSEGSAPGTSTEPSEGSAPGSPAGSPTSTEEGTSTEPSEGSAPGTSTEPSEGSAPGTSESATPESGPGTSTEPSEGSAPGTSESATPESGPGSEPATSGSETPGTSTEPSEGSAPGTSTEPSEGSAPGTSESATPESGPGTSESATPESGPGSPAGSPTSTEEGTSESATPESGPGSEPATSGSETPGTSESATPESGPGTSTEPSEGSAPGTSTEPSEGSAPGTSTEPSEGSAPGTSTEPSEGSAPGTSTEPSEGSAPGTSTEPSEGSAPGSPAGSPTSTEEGTSTEPSEGSAPGTSESATPESGPGSEPATSGSETPGTSESATPESGPGSEPATSGSETPGTSESATPESGPGTSTEPSEGSAPGTSESATPESGPGSPAGSPTSTEEGSPAGSPTSTEEGSPAGSPTSTEEGTSESATPESGPGTSTEPSEGSAPGTSESATPESGPGSEPATSGSETPGTSESATPESGPGSEPATSGSETPGTSESATPESGPGTSTEPSEGSAPGSPAGSPTSTEEGTSESATPESGPGSEPATSGSETPGTSESATPESGPGSPAGSPTSTEEGSPAGSPTSTEEGTSTEPSEGSAPGTSESATPESGPGTSESATPESGPGTSESATPESGPGSEPATSGSETPGSEPATSGSETPGSPAGSPTSTEEGTSTEPSEGSAPGTSTEPSEGSAPGSEPATSGSETPGTSESATPESGPGTSTEPSEGSAPGHHHHHH
notes: Single chain: anti-EpCAM scFv, anti-CD3 scFv, release segment BSRS-1, XTEN864, His6; also called ProTIA-X
Kd [3]: 15.3 nM
Kd [4]: 11.4 nM
EC50 [5]: 0.28 nM
fold hindrance of binding by XTEN864 (against the protease-treated ProTIA) [5]: ≥ 2.3 fold
EC50, LDH release cytotoxicity, purified human CD3 positive T cells with OVCAR-3 cells 5:1 [6]: 0.7 pM
EC50, LDH release cytotoxicity, purified human CD3 positive T cells with SK-OV-3 cells 5:1 [6]: 134 pM
EC50 [7]: 1.8 nM
fold hindrance of binding by XTEN864 (against the cleaved and released anti-CD3scFv portion) [7]: 5.8 fold

The next lines start with results.

EC50 [2]: 0.03 µg/mL
B2: AC1714 protease-untreated anti-EpCAM×anti-CD3 ProTIA (bispecific antibody)
chain: B4 chain with L533E, S534A, D538A, S541T, L543A, A546T, S548P
EC50 (pM), caspase 3/7 cytotoxicity, PBMC with HCT-116 cells 10:1 [1]: 52 pM
EC50 (pM), caspase 3/7 cytotoxicity, PBMC with HPAF-II cells 10:1 [1]: 20 pM
EC50 (pM), caspase 3/7 cytotoxicity, PBMC with MDA-MB-231 cells 10:1 [1]: 1740 pM

EC50 [2]: 0.034 µg/mL
B3: AC1715 protease-untreated anti-EpCAM×anti-CD3 ProTIA (bispecific antibody)
chain: B4 chain with L533E, S537A, D538A, H540T, S541T, L543A, A546T, S548P
EC50 (pM), caspase 3/7 cytotoxicity, PBMC with HCT-116 cells 10:1 [1]: 20 pM
EC50 (pM), caspase 3/7 cytotoxicity, PBMC with HPAF-II cells 10:1 [1]: 14 pM
EC50 (pM), caspase 3/7 cytotoxicity, PBMC with MDA-MB-231 cells 10:1 [1]: 1190 pM
